First the molecules themselves.
B1: Metastasis-associated protein MTA3, residues 265 to 317; numbered along this chain, Q9BTC8 (parent)
chain: RDEMEEWSASEASLFEEALEKYGKDFNDIRQDFLPWKSLTSIIEYYYMWKTTD
B2: Ras GTPase-activating protein 1, residues 281 to 341; numbered along this chain, P20936 (parent)
chain: RRRVRAILPYTKVPDTDEISFLKGDMFIVHNELEDGWMWVTNLRTDEQGLIVEDLVEEVGR

In the Human Domainome abundance scans (Beltran et al. 2025) one finds abundance fitness data, which are given here for 46 variants.

± gives the uncertainty stated by the source.

The variants in the first data set derive from B1. The data set is described as follows: abundance fitness (aPCA) (normalised: wild type 0, dead -1); higher = more abundant; growth selection in yeast, the domain comes from the species named. The conditions noted are these: Homo sapiens.
For the variant RDEDEEWSASEASLFEEALEKYGKDFNDIRQDFLPWKSLTSIIEYYYMWKTTD, the abundance fitness is -0.554 ± 0.21.
On to RDECEEWSASEASLFEEALEKYGKDFNDIRQDFLPWKSLTSIIEYYYMWKTTD, for which the abundance fitness is -0.307 ± 0.15.
With RDEEEEWSASEASLFEEALEKYGKDFNDIRQDFLPWKSLTSIIEYYYMWKTTD, the abundance fitness is -0.351 ± 0.29.
As for RKEMEEWSASEASLFEEALEKYGKDFNDIRQDFLPWKSLTSIIEYYYMWKTTD, the abundance fitness is 0.523 ± 0.093.
Same read-out and setting: the value for RWEMEEWSASEASLFEEALEKYGKDFNDIRQDFLPWKSLTSIIEYYYMWKTTD was -0.323 ± 0.28; that for RSEMEEWSASEASLFEEALEKYGKDFNDIRQDFLPWKSLTSIIEYYYMWKTTD was -0.249 ± 0.23.
As to RHEMEEWSASEASLFEEALEKYGKDFNDIRQDFLPWKSLTSIIEYYYMWKTTD, the abundance fitness was -0.296 ± 0.072.
Still for that read-out and setting: the value for REEMEEWSASEASLFEEALEKYGKDFNDIRQDFLPWKSLTSIIEYYYMWKTTD was 0.199 ± 0.076.
As to RAEMEEWSASEASLFEEALEKYGKDFNDIRQDFLPWKSLTSIIEYYYMWKTTD, the abundance fitness is 0.033 ± 0.15.
For RGEMEEWSASEASLFEEALEKYGKDFNDIRQDFLPWKSLTSIIEYYYMWKTTD, the abundance fitness turned out to be 0.204 ± 0.084.
For the variant RTEMEEWSASEASLFEEALEKYGKDFNDIRQDFLPWKSLTSIIEYYYMWKTTD, the abundance fitness came out at 0.271 ± 0.17.
For RMEMEEWSASEASLFEEALEKYGKDFNDIRQDFLPWKSLTSIIEYYYMWKTTD, the abundance fitness turned out to be 0.033 ± 0.22.
RFEMEEWSASEASLFEEALEKYGKDFNDIRQDFLPWKSLTSIIEYYYMWKTTD: the abundance fitness is -0.133 ± 0.47.
Regarding RPEMEEWSASEASLFEEALEKYGKDFNDIRQDFLPWKSLTSIIEYYYMWKTTD, the abundance fitness is -0.617 ± 0.49.
On to RREMEEWSASEASLFEEALEKYGKDFNDIRQDFLPWKSLTSIIEYYYMWKTTD, for which the abundance fitness is -0.285 ± 0.15.
With RNEMEEWSASEASLFEEALEKYGKDFNDIRQDFLPWKSLTSIIEYYYMWKTTD, the abundance fitness was 0.058 ± 0.23.
For PDEMEEWSASEASLFEEALEKYGKDFNDIRQDFLPWKSLTSIIEYYYMWKTTD, the abundance fitness was -0.529 ± 0.34.
The same measure, in the same setting: for FDEMEEWSASEASLFEEALEKYGKDFNDIRQDFLPWKSLTSIIEYYYMWKTTD the value was 0.372 ± 0.15.
With NDEMEEWSASEASLFEEALEKYGKDFNDIRQDFLPWKSLTSIIEYYYMWKTTD, the abundance fitness turned out to be 0.378 ± 0.14.
In the case of SDEMEEWSASEASLFEEALEKYGKDFNDIRQDFLPWKSLTSIIEYYYMWKTTD, the abundance fitness is -0.259 ± 0.2.
As for IDEMEEWSASEASLFEEALEKYGKDFNDIRQDFLPWKSLTSIIEYYYMWKTTD, the abundance fitness came out at 0.025 ± 0.23.
Take WDEMEEWSASEASLFEEALEKYGKDFNDIRQDFLPWKSLTSIIEYYYMWKTTD: the abundance fitness is -0.044 ± 0.26.
CDEMEEWSASEASLFEEALEKYGKDFNDIRQDFLPWKSLTSIIEYYYMWKTTD: the abundance fitness amounted to 0.057 ± 0.077.
For the variant ADEMEEWSASEASLFEEALEKYGKDFNDIRQDFLPWKSLTSIIEYYYMWKTTD, the abundance fitness amounted to 0.304 ± 0.35.
Still for that read-out and setting: the value for MDEMEEWSASEASLFEEALEKYGKDFNDIRQDFLPWKSLTSIIEYYYMWKTTD was 0.11 ± 0.23.
Turning to TDEMEEWSASEASLFEEALEKYGKDFNDIRQDFLPWKSLTSIIEYYYMWKTTD, the abundance fitness was determined as 0.299 ± 0.16.
With LDEMEEWSASEASLFEEALEKYGKDFNDIRQDFLPWKSLTSIIEYYYMWKTTD, the abundance fitness is -0.098 ± 0.11.
Consider VDEMEEWSASEASLFEEALEKYGKDFNDIRQDFLPWKSLTSIIEYYYMWKTTD, for which the abundance fitness stood at 0.231 ± 0.4.
GDEMEEWSASEASLFEEALEKYGKDFNDIRQDFLPWKSLTSIIEYYYMWKTTD: the abundance fitness amounted to 0.335 ± 0.17.
KDEMEEWSASEASLFEEALEKYGKDFNDIRQDFLPWKSLTSIIEYYYMWKTTD: the abundance fitness came to 0.028 ± 0.26.
Take RDAMEEWSASEASLFEEALEKYGKDFNDIRQDFLPWKSLTSIIEYYYMWKTTD: the abundance fitness was -0.342 ± 0.14.
On to RDDMEEWSASEASLFEEALEKYGKDFNDIRQDFLPWKSLTSIIEYYYMWKTTD, for which the abundance fitness was -0.006 ± 0.079.
Regarding RDNMEEWSASEASLFEEALEKYGKDFNDIRQDFLPWKSLTSIIEYYYMWKTTD, the abundance fitness was determined as 0.993 ± 0.19.
Same read-out and setting: for RDSMEEWSASEASLFEEALEKYGKDFNDIRQDFLPWKSLTSIIEYYYMWKTTD the value was 0.173 ± 0.09; for RDYMEEWSASEASLFEEALEKYGKDFNDIRQDFLPWKSLTSIIEYYYMWKTTD, 0.938 ± 0.43.
Turning to RDPMEEWSASEASLFEEALEKYGKDFNDIRQDFLPWKSLTSIIEYYYMWKTTD, the abundance fitness was -0.466 ± 0.47.
Turning to RDRMEEWSASEASLFEEALEKYGKDFNDIRQDFLPWKSLTSIIEYYYMWKTTD, the abundance fitness is -0.147 ± 0.11.
Regarding RDMMEEWSASEASLFEEALEKYGKDFNDIRQDFLPWKSLTSIIEYYYMWKTTD, the abundance fitness stood at 0.132 ± 0.29.
RDTMEEWSASEASLFEEALEKYGKDFNDIRQDFLPWKSLTSIIEYYYMWKTTD: the abundance fitness worked out at 0.741 ± 0.15.
Still for that read-out and setting: for RDGMEEWSASEASLFEEALEKYGKDFNDIRQDFLPWKSLTSIIEYYYMWKTTD the value was -0.475 ± 0.15; for RDWMEEWSASEASLFEEALEKYGKDFNDIRQDFLPWKSLTSIIEYYYMWKTTD, -0.873 ± 0.46; for RDKMEEWSASEASLFEEALEKYGKDFNDIRQDFLPWKSLTSIIEYYYMWKTTD, 0.566 ± 0.19.
Consider RDQMEEWSASEASLFEEALEKYGKDFNDIRQDFLPWKSLTSIIEYYYMWKTTD, for which the abundance fitness is -0.357 ± 0.32.
RDLMEEWSASEASLFEEALEKYGKDFNDIRQDFLPWKSLTSIIEYYYMWKTTD: the abundance fitness was determined as 0.135 ± 0.08.
For RDVMEEWSASEASLFEEALEKYGKDFNDIRQDFLPWKSLTSIIEYYYMWKTTD, the abundance fitness is -0.151 ± 0.095.

In a further data set the parent is B2. The description is as above. The conditions noted are these: Homo sapiens.
As to RRRVRAILPYTKVPDTFEISFLKGDMFIVHNELEDGWMWVTNLRTDEQGLIVEDLVEEVGR, the abundance fitness was -0.182 ± 0.028.
